This is an account of results in the DeepSol protein solubility set.

The nature of this series: soluble on expression in E. coli; label from the status in PepcDB or PDB records.
As for “MGSDKIHHHHHHMSKVSLTIPPDFILGAAASAWQTEGWSGKKAGQDSYLDLWYKQDRQVWHNGYGPAKATDFFNRYREDVALMKLAGLTHYRTSINWSRFMLDYEKGIVDEEYAAYIDNLLDEMHRQGIEPMICLEHYELPACLLEKYQGWSSKQVVEWFVLYADTVFARYAGKVKRWFTFNEPIVVQTRVYLDALRYPYEQNTHTWMQWNHHKNLATAKVVQRFRQKGYDREGGSIGVILNPEVTYPRSRAAHDVKAAHLYDLFYNRVFLDPALKGEYPAELIALLAQHQVKWDYTEEELAIIRDNTVDEVGINLYYPHRVKAPSREWNKETPFHPAYYYEHFELPGRRMNTSRGWEINPKIIYDMAKRIEREYDNVPWFVAENGIGIENEARFKDDAGVIQDDYRIAFIAEHLYWTLKAKEEGANCRGYMLWAFTDNVSPMNAFKNRYGLIEIDLEQDRQRRPKKSAAWFRQLHDTRQLELTLDDEEK”, the “soluble on expression in E. coli” value is “not soluble”. Turning to “MSLKVAKDLVVSLAYQVRTEDGVLVDESPVSAPLDYLHGHGSLISGLETALEGHEVGDKFDVAVGANDAYGQYDENLVQRVPKDVFMGVDELQVGMRFLAETDQGPVPVEITAVEDDHVVVDGNHMLAGQNLKFNVEVVAIREATEEELAHGHVHGAHDHHHDHDHDGCCGGHGHDHGHEHGGEGCCGGKGNGGCGCEGGSHHHHHH”, the “soluble on expression in E. coli” value is reported as “soluble”. Consider “PGKGEGSPVGIAILGYGTVGSQVLRLLTENHNDFQHRAGGPLEIKGVAASSVEKHRGSLADQLGLLTDDARSLIARDDVDIVVEVIGGIDYPRELILEALHSGKSVVTANKALVAAHSEELAAAADEAGVDLYFEAAVAAAIPVLGPLRRSLAGDQIQSVAGIVNGTTNFILDAMDSTGASYDDMLAEATRLGYAEADPTADVEGHDAASKAAILASLAFHTRVTYADVYCEGISKITADDINAAKEAGFTIKLLAICERLNVDGVEKVSARVHPTLVPRNHPLASVDKSFNAIFVEAEAAGRLMFYGNGAGGNPTASAVLGDIVGAARNKVFGGRAPGESTYADLPIAPFGEVPTRFHIDMEVEDRVGVLADLAKTFSNHGISLRTVRQAEKDGHARLIVVTHTAKESELEATVEQIKNSDSVKKINSVIRLAG”, for which the “soluble on expression in E. coli” value is listed as “soluble”. With “MAKLTALTLLGMGLALFDRQKSSFQTRFNVHREVTPVELPNCNLVKGIDNGSEDLEILPNGLAFISSGLKYPGIMSFDPDKSGKILLMDLNEKEPAVSELEIIGNTLDISSFNPHGISTFIDDDNTVYLLVVNHPGSSSTVEVFKFQEEEKSLLHLKTIRHKLLPSVNDIVAVGPEHFYATNDHYFIDPYLKSWEMHLGLAWSFVTYYSPNDVRVVAEGFDFANGINISPDGKYVYIAELLAHKIHVYEKHANWTLTPLRVLSFDTLVDNISVDPVTGDLWVGCHPNGMRIFFYDAENPPGSEVLRIQDILSEEPKVTVVYAENGTVLQGSTVAAVYKGKLLIGTVFHKALYCDL”, the “soluble on expression in E. coli” value is recorded as “soluble”. For “MSLIRCTDINEITPFSSFISKIPNHCGTHMDASRHFVKDGLSINELPIGYFCHKDVVLLEVPKGEAEGITKEDLEPYAAILAQVSFAFLCTGFEKYRTENPLIYQNEGPYIATSAGKYLSDNYPNLKGVGIWFPCTWFAVFSCTEGHHHHHH” the value was “not soluble”. For “MPEFDFSPITEGIYNVIETEEKVLTSLPEETITQKRNRQNRTIKQILGHLIDSTSNNHQRMIRLQYSKDLLFFPDYRQDNDLWIALQDYQHTDWNNLIQLWKFFNLHIIQVIKSVDQTKLDSYWCDFEGTKVTLKEMIEGYLDHLNLHIQEIHELI” the value was “not soluble”; for “SAELQEVQITEEKPLLPGQTPEAAKEAELAARILLDQGQTHSVETPYVSVTFTVYGTPKPKRPAILTYHDVGLNYKSCFQPLFQFEDMQEIIQNFVRVHVDAPGMEEGAPVFPLGYQYPSLDQLADMIPCVLQYLNFSTIIGVGVGAGAYILARYALNHPDTVEGLVLINIDPNAKGWMDWAAHKLTGLTSSIPEMILGHLFSQEELSGNSELIQKYRNIITHAPNLDNIELYWNSYNNRRDLNFERGGDITLRCPVMLVVECNSKLDPTQTSFLKMADSGGQPQLTQPGKLTEAFKYFLQGMGYMASSCMTRLSRSRTASLTSAASVDGNRSRSRTLSQSSESGTLSSGPPGHTMEVSC”, “not soluble”. Then “MSLYIPCLMCTQHPDSTVKITAGEEVDEAVVAFLAYGCDEVMVDYEGKATPYSQPRDVASKALALGLPLGERFFITPRVPNPRLEDFERSMLSLEAAVLANSYSQRAAGVQAVKWVVLPMTEDVETMAFVYKALDMKARDLAELNAVKRDSSIELIPLVEDAMRQIKIESFIKALFRTAAQSGRILEHMRIFLGISDSAVRHGHMASALAMVKALGQISEINRDGEFKISPIVGMGSPPFRGGLNNPHLAVPEAAQYAGYKTATIQSAVRYDVSYAEYQKVREAILSVYTPRRLHVEEAWITKASELYREAIRPYIGKIAELANAIPSTRDRVSWREYGRVIEGVEWRVPRAIVYTATWYFAGVPPTLLDARFIAWAYKNDLLDDVLRALPATVEEWKFESRFYSRERAEKTLGGEIVKDIDNAFDILGIKPEPDRTYITLLNSADTQPHAIALGRIRGFLGEGHHHHHH”, with “not soluble”; and “MSQTGEKGKFPDAAGYVGFANLPNQVHRKSVKKGFEFTLMVVGESGLGKSTLINSLFLTDLYPERYIPGAAEKIERTVQIEASTVEIEERGVKLRLTVVDTPGYGDAINSQDCFKTIIQYIDNQFERYLHDESGLNRRHIVDNRVHCCFYFISPFGHGLKPLDVEFMKAIHSKVNIVPVIAKADTLTLKERDRLKRRILDEISEHGIRIYQLPDADSDEDEEFKDFVPNRCIWSSLQFYQMHIIAITFIDIMFVFKKAAHVISTTIIMVKLNIKCQ”, with “not soluble”. On to “MLIFEGKEISTDSEGYLKETTQWSEALAVAIAANEGIELSAEHWEVVRFVREFYLEFNTSPAIRMLVKAMANKFGEEKGNSRYLYRLFPKGPAKQATKIAGLPKPVKCI”, for which the “soluble on expression in E. coli” value is “not soluble”. As to “MEYPRVMIRFAVIGTNWITRQFVEAAHESGKYKLTAVYSRSLEQAQHFANDFSVEHLFTSLEAMAESDAIDAVYIASPNSLHFSQTQLFLSHKIHVICEKPLASNLAEVDAAIACARENQVVLFEAFKTACLPNFHLLRQALPKAGKLRKVFFNYCQYSSRYQRYLDGENPNTFNPAFSNGSIMDIGFYCLASAVALFGEPKSVQATASLLASGVDAHGVVVMDYGDFSVTLQHSKVSDSVLGSEIQGEAGSLVIEKLSECQKVCFVPRGSQMQDLTQPQHINTMLYEAELFATLVDEHLVDHPGLAVSRITAKLLTEIRRQTGVIFPADSVKLYLPK”, the “soluble on expression in E. coli” value is “not soluble”. For “MRDALLGALDAGAVCVNVDLAHAGQQAKLEPDTPYGDALGVGAGRNWAHVNSIAYDAKDDSIILSSRHQGIVKIGRDKQVKWILAPSKGWNKQLASKLLKPVDDHGKPLTCDENGKCKDTDFDFTYTQHTAWLSSKGTLTVFDNGDGRGLEQPALPTMKYSRFVEYKIDEKKGTVQQVWEYGKERGYDFYSPITSVVEYQKDRDTMFGFGGSINLFDVGKPTVGKLNEIDYKTKEVKVEIDVLSDKPNQTHYRALLVHPTQMFKLEHHHHHH”, the “soluble on expression in E. coli” value was “soluble”. Regarding “MSAGKIDVHGFEKETLFFKNIASGSKGNCTLIWDSTDLIVIDLGITMKKFRDSIKSLDLAGRSISLFISHEHSDHIGGVPTTSKYVDMDVYMRPALSGSFRRKTYEMDGSLVVGNFEIRAFEIPHDAADPVGFSVLWHNRKISVVSDLGKVTDRVIESIRNSDILAFESNHDVEMLRTGSYPEALKRRILSDHGHLSNEQSAEAISRVATDDMRIILTHLSQENNRPEIALNEVKSYLENRNVRYRSIETADQYTGSSLYTLER”, the “soluble on expression in E. coli” value is given as “not soluble”. For “MSYSDLLRELAAAHAISSSYSGFGGAHVEVSDDTLVKTLRSLGVCFGNEDEPATDHEPLTGPMPSEDQIRYALQQRYDAEATRPLPRCVVAVEGDPYVFNVHVHDGAPADITITLEDGSTAEVTQVENWAPPREVDGITWGEASFQLPSDLPLG” the value was “not soluble”.
